In patent publication US20240029819A1, “AGENTS BINDING MODIFIED ANTIGEN PRESENTED PEPTIDES AND USE OF SAME” (Yeda Research and Development Co. Ltd., priority 2020, published 2024):
Entries after “also recorded” stand apart in the source; their conditions may differ. Where no end group is shown, it is not given here. [ ]: non-standard residue; d: D form. N(d) = deamidated Asn

The substances below were run against HLA-A0201 (Homo sapiens, UniProt P04439, D140Y/D185E/D98H/E176V/E277Q/G131W/G231S/I119V/I121R/I166T/I218V/L300P/L318F/N151K/N90K/P208A/P217A/Q86G/Q94H/R138H/R169H/T345S) (assay: ProImmune Module 2 REVEAL in-vitro MHC-peptide binding assay). Details: synthesized modified peptides and unmodified counterparts; score relative to positive control peptide; FIG. 4F.
Procedure: ProImmune binding assay—ProImmune (www(dot)proimmune(dot)com) Module 2 REVEAL Binding Assay measure the yield of correctly conformed MHC-peptide complex following incubation of the recombinant MHC allele and peptide of interest using a conformational-dependent antibody in an immunoassay. Each peptide is given a score relative to the positive control peptide, which is a known T cell epitope.
To validate that the modified peptides identified with PROMISE are able to bind to HLA, the subset of modified peptides that were identified in immunopeptidomics of an HLA-A0201 cell line and that were not identified in IEDB in their unmodified form were filtered (FIG. 4D). Further, whether the difference in the detection of the modified peptides and their unmodified counterparts was due to their relative ability to bind HLA-A0201 was examined. […] Methylation of K-6 removes its positive charge and thereby alleviates electrostatic repulsion. In addition, the methyl group is nicely packed into the hydrophobic MHC groove. […] To assess the role of peptide modification in altering MHC binding 6 modified peptides and their unmodified counterparts were synthesized and their binding was examined using a binding assay (ProImmune). In these setting 4 of the synthesized modified peptides were confirmed as HLA binders.

Substance	binding to HLA-A0201 of the modified peptide compared with its matching unmodified form
K(me)VMDEVAGI (KVMDEVAGI; not fully specified (residue 1); printed as K(me)VMDEVAGI)	bind the HLA-A0201 more strongly than the unmodified form
TLE(me)NCLLPD(me) (TLENCLLPD; not fully specified (residues 3, 9); printed as TLE(me)NCLLPD(me))	bound the MHC only in its modified form
TLIESK(me)LPV (TLIESKLPV; not fully specified (residue 6); printed as TLIESK(me)LPV)	bind more strongly in its modified form; also recorded: bind the HLA-A0201 more strongly than the unmodified form
TLN(d)SLIYTL (TL[N(d)]SLIYTL)	bind more strongly in its unmodified form
